The chains are these.
B1: GST-p107 R1R2 [not stated] / B55α (PP2A regulatory subunit B55α), endogenous in U-2 OS cells [human (endogenous in U-2 OS)] (parent)
chain 1: KVPTCEEVIFPNNFETGNGGNVQGHLPLMPMSPLMHPRVKEVRTDSGSLRRDMQPLSPISVHERYSSPTAGSAKRRLF
chain 2: MAGAGGGNDIQWCFSQVKGAVDDDVAEADIISTVEFNHSGELLATGDKGGRVVIFQQEQENKIQSHSRGEYNVYSTFQSHEPEFDYLKSLEIEEKINKIRWLPQKNAAQFLLSTNDKTIKLWKISERDKRPEGYNLKEEDGRYRDPTTVTTLRVPVFRPMDLMVEASPRRIFANAHTYHINSISINSDYETYLSADDLRINLWHLEITDRSFNIVDIKPANMEELTEVITAAEFHPNSCNTFVYSSSKGTIRLCDMRASALCDRHSKLFEEPEDPSNRSFFSEIISSISDVKFSHSGRYMMTRDYLSVKIWDLNMENRPVETYQVHEYLRSKLCSLYENDCIFDKFECCWNGSDSVVMTGSYNNFFRMFDRNTKRDITLEASRENNKPRTVLKPRKVCASGKRKKDEISVDSLDFNKKILHTAWHPKENIIAVATTNNLYIFQDKVN

This experiment covers variants of B1. Description: GST pull-down, western blot. The following applies: with B55α (PP2A regulatory subunit B55α), U2-OS lysates, triplicate, read off a plot.
Turning to chain 1 R64A, the ratio to parent stood at 0.57.
